The values below come from US20240076389A1 (NATIONAL RESEARCH COUNCIL OF CANADA, published 2024).

In assay [1] the target is T1, human AXL expressed on the cell surface of tumor cell lines (human, UniProt P30530 26-894).
T1 construct: whole, on cells; also called cell surface-expressed AXL; cell-based AXL
T1 sequence (looked up): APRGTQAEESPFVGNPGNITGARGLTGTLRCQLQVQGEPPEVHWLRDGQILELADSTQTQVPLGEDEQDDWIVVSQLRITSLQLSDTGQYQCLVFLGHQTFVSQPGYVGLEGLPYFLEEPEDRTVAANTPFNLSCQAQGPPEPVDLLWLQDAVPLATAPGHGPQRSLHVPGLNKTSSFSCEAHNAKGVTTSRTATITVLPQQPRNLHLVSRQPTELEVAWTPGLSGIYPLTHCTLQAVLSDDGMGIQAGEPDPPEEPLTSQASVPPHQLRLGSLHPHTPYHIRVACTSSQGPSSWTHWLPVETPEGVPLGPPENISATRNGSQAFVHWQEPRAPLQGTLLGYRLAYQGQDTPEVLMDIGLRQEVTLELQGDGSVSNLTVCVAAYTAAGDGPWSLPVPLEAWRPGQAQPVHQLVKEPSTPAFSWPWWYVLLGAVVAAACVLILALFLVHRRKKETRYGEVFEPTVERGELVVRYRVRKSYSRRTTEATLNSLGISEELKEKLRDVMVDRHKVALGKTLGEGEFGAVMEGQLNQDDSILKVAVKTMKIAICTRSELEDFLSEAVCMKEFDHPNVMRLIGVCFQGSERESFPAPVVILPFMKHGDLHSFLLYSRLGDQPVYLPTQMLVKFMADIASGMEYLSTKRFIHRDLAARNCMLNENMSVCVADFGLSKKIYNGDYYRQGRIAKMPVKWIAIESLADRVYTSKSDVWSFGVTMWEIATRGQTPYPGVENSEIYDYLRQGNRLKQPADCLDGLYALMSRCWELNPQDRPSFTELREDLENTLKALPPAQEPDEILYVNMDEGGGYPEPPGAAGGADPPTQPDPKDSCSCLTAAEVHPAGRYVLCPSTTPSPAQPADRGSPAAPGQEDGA
Kind of assay: FACS on SKOV3 cells, apparent Kd, human Fc format. How it is done:
FACS binding assay. Adherent cells were dissociated with non-enzymatic Sigma Cell Dissociation Solution (Cat. No. C5789). Cells suspensions were added to polypropylene, V-bottom 96-well plates and incubated for 2 hours on ice with primary antibodies at concentrations ranging from 100 nM to 0.001 nM or at a single dose of 100 nM (for the non-specific control). After incubation and washes, cells were incubated with fluorescently labeled secondary antibody (Alexa Fluor® 488 anti-human IgG from Jackson Cat. No 709-546-098) for 1 hour on ice, then washed. Cell viability was determined using Fixable viability dye 450 (20 min on ice). Stained cells were fixed in 1% formaldehyde at 4° C. and stored at 4° C. until acquisition which was performed the next day.
Binding of recombinant chimeric Abs to three cell lines was assessed by FACS as described above. The apparent Bmax and Kd determination is shown below in Table 14.

In assay [2] the target is T2, mouse AXL extracellular domain (Sino cat. 51026-M08H) (mouse, UniProt Q00993 19-445).
T2 construct: extracellular domain; Bought protein; also called mouse AXL ECD
T2 sequence (looked up): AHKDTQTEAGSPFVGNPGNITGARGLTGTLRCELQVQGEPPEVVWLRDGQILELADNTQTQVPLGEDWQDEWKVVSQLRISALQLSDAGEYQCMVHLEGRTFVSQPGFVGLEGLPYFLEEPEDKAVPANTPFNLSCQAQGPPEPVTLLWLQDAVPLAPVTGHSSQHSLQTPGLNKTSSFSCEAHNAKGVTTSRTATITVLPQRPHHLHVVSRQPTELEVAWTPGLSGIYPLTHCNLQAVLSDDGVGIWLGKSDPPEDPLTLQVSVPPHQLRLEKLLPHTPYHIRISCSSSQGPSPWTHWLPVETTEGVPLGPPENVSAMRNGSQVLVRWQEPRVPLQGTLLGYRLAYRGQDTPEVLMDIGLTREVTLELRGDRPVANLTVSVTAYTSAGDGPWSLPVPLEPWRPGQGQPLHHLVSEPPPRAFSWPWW
Kind of assay: ELISA on coated mouse AXL ECD (100 ng/well), VHH-Fc. Here is the method:
ELISA. ELISAs against human, cyno and mouse AXL ECDs were conducted by immobilizing 100 ng of each protein in wells of Nunc MaxiSorp microplates overnight. Human AXL (aa 1-451) and cyno AXL (aa 1-449) were produced recombinantly as described in Example 10. Mouse AXL was purchased from Sino (cat. 51026-M08H). The next day, plates were blocked with 5% (w/v) dried milk in PBS. Murine mAbs (either hybridoma- or recombinantly-produced) or VHH-Fcs were diluted in PBS containing 1% BSA and 0.1% Tween-20 and added to wells for 2 hours at room temperature. Wells were washed 5× with PBS containing 0.1% Tween-20, then HRP-labeled protein A (diluted 1:1000 in PBS containing 1% BSA and 0.1% Tween™-20) was added to wells for 1 hour at room temperature. Wells were washed again 5× with PBS/0.1% Tween-20 and developed using TMB substrate. Absorbance was measured at 450 nm. As a positive control for mouse AXL binding, a commercial anti-mouse AXL mAb (clone 175128, R&D Systems MAB8541, rat IgG2A) was used and detected with donkey […] secondary antibody.
A general note: ELISA stands for enzyme-linked immunosorbent assay.

B1: NRC-sdAb001-Fc (VHH-human IgG1 Fc fusion) (Fc fusion)
chain: QVKLEESGGGLVQAGGSLRLSCTASASISSFDIMGWYRQAPGKQRELVAAITTLDIANYRDSVKGRFTISRDNAKNTVYLQMDSLKPEDTARYHCAAFQSDQNYWGQGTQVTVSS
notes: VHH fused N-terminally to human IgG1 Fc, made in HEK293 cells; also called NRC-sdAb0001-Fc; NRC-sdAb001-hIgG1; not shown: human IgG1 Fc
On to B1, for which the Kd in assay [1] came out at 112 pM. For the same molecule, the binding result in assay [2] is given as “no binding”.
